Like-named read-outs stand apart in the source and are kept apart here.
Experiments:
[1] = target: T1, RL9HIV (peptide pulsed K562-HLA-E cells) (human); experiment: flow cytometry on peptide-pulsed K562-HLA-E cells; AF647 anti-mouse Ig(H+L)
T1 construct: cell surface

[2] = target: T2, RL9 SIV (peptide pulsed K562-HLA-E cells) (human); experiment: as above
T2 construct: cell surface

[3] = target: T3, Mtb44 (peptide pulsed K562-HLA-E cells) (human); experiment: as above
T3 construct: cell surface

[4] = target: T4, soluble HLA-E-VL9 complex (HLA-E*01:03, β2M, VL9 peptide) (human)
[5] = target: T4, soluble HLA-E-VL9 complex (HLA-E*01:03, …); remark: listed apart in the source
[6] = target: T4, soluble HLA-E-VL9 complex (HLA-E*01:03, …); remark: listed apart in the source
[7] = target: T4, soluble HLA-E-VL9 complex (HLA-E*01:03, …); remark: listed apart in the source
[8] = target: HLA-E-RL9HIV with a mutation at P1 (arginine to valine) on transfected 293T cells (human, UniProt P61769 21-119; P13747 22-358); experiment: flow cytometry on transfected HEK 293T cells
[9] = target: HLA-E-RL9SIV single chain trimer on transfected 293T cells (human, UniProt P61769 21-119; P13747 22-358); experiment: flow cytometry, SCT-transfected 293T cells, MFI bar chart [panel E]

B1: 3H4 IgM (murine HLA-E-VL9-specific IgM monoclonal antibody 3H4) (antibody, V domains shown)
VH: EVQLQESGPELVKPGASVKIPCKASGYTFTDYNMDWVKQSHGKSLEWIGDINPNNGGTIYNQKFKGKATLTVDKSSSTAYMELRSLTSEDTAVYYCARPDYYGSSYGWYFDVWGTGTTVTVSS
VL: DIVITQSPSSMYASLGERVTITCKASQDINSYLSWFQQKPGKSPKTLIYRANRLVDGVPSRFSGSGSGQDYSLTISSLEYEDMGIYYCLQYDEFPLTFGAGTKLELK
notes: also called mAb 3H4; IgM 3H4
B1 showed an MFI [1] of 1520, an MFI [2] of 1580 and an MFI [3] of 1180.

B2: 3H4 Gv3 (antibody, V domains shown)
VH: EVQLQESGPELVKPGASVKIPCKASGYTFTDYNMDWVKQSHGKSLEWIGDINPNNGGTIYNQKFKGKATLTVDKSSSTAYMELRSLTSEDTAVYYCARPDSAQYSYGWYFDVWGTGTTVTVSS
VL: DIVITQSPSSMYASLGERVTITCKASQDINSYLSWFQQKPGKSPKTLIYRANRLVDGVPSRFSGSGSGQDYSLTISSLEYEDMGIYYCLQYDEFPLTFGAGTKLELK
B2 gave a Kd [4] of 223 nM.

B3: 3H4 Gv7 (antibody, V domains shown)
VH: EVQLQESGPELVKPGASVKIPCKASGYTFTDYNMDWVKQSHGKSLEWIGDINPNNGGTIYNQKFKGKATLTVDKSSSTAYMELRSLTSEDTAVYYCARPDGARWSYGWYFDVWGTGTTVTVSS
VL: DIVITQSPSSMYASLGERVTITCKASQDINSYLSWFQQKPGKSPKTLIYRANRLVDGVPSRFSGSGSGQDYSLTISSLEYEDMGIYYCLQYDEFPLTFGAGTKLELK
B3 showed a Kd [5] of 994 nM, a koff [5] of 0.0349 s⁻¹ and a kon [5] of 35200 M⁻¹ s⁻¹. It also gave a Kd [6] of 735 nM, a koff [6] of 0.0345 s⁻¹ and a kon [6] of 47000 M⁻¹ s⁻¹.

B4: 3H4G_v31 (antibody, V domains shown)
VH: EVQLQESGPELVKPGASVKIPCKASGYTFTDYNMDWVKQSHGKSLEWIGDINPNNGGTIYNQKFKGKATLTVDKSSSTAYMELRSLTSEDTAVYYCARPDSAQYRWNWYFDVWGTGTTVTVSS
VL: DIVITQSPSSMYASLGERVTITCKASQDINSYLSWFQQKPGKSPKTLIYRANRLVDGVPSRFSGSGSGQDYSLTISSLEYEDMGIYYCLQYDEFPLTFGAGTKLELK
notes: also called 3H4_Gv31_G1.4A
With B4 the Kd [7] was 62.4 nM, the koff [7] was 0.0112 s⁻¹ and the kon [7] was 180000 M⁻¹ s⁻¹. B4: binds [8].

B5: CA172 (antibody, V domains shown)
VH: QVQLVESGGGLVKPGGSLRLSCAASGFTFSDYYMSWIRQAPGKGLEWVSYISSSSSYTNYADSVKGRFTISRDNAKNSLYLQMNSLRAEDTAVYYCARALRYFDWYDYWGQGTLVTVSS
VL: EIVLTQSPDFQSVTPKGKVTITCRASQSIGSSLHWYQQKPDQSPKLLIKYASQSFSGVPSRFSGSGSGTEFTLTISSLQPEDFATYYCQQLNSYSPITFGQGTRLEIK
B5: no binding (tested: 2 µg/ml) [9].
